This is an account of results in paper PMC4580526 (Journal of bone and mineral research : the official journal …, 2015).

A word on the IC50: it is the midpoint of a concentration-inhibition curve. The low end stands for inhibition by little substance, the high end for a need for much substance.

In assay [1] the target is PTH receptor type-1 (PTH1R), wild-type human (human) (UniProt Q03431).
Assay [2] shares this target. The assay can be described thus: radioligand binding.
The test system of assay [3] is COS-7 cells. The assay can be described thus: Secretion of PTH into conditioned medium of transfected COS-7 cells. It counts as cell-based. The following applies: for PTH level in conditioned medium, PTH(1-84) assay / PTH level in conditioned medium, ntPTH assay: 48 hours after transfection, mean ± SEM.

UniProt Q03431, sequence (Q03431 27-593): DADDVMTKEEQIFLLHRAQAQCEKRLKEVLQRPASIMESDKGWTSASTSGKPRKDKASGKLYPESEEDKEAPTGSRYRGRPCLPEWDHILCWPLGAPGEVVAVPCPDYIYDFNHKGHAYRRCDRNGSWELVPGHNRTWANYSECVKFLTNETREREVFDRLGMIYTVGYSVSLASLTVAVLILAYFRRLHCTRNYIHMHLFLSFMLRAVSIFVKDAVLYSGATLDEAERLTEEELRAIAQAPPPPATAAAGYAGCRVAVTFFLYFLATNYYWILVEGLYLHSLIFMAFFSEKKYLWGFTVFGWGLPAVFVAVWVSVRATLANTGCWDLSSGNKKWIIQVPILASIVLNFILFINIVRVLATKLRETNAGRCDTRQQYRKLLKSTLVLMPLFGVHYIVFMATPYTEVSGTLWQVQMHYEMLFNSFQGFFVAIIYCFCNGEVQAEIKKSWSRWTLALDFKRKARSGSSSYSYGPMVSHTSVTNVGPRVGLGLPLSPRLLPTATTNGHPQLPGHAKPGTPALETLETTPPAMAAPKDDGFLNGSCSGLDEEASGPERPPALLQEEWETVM

In assay [1], [Cys25]PTH(1-34) (peptide) registered a PLC/IP signaling EC50, IP1 in GP-2.3 cells (Cisbio IP1 assay kit) of 0.265 µM and a cAMP signaling EC50, Glosensor luminescence in SGS-72 cells (SaOS-2-derived) of 0.00027 µM. The molecule also displayed a concentration for half-maximal inhibition (IC50) in assay [2] of 0.0123 µM.

B1: [Cys25]PTH(1-84): mutant hormone with arginine-to-cysteine mutation at position 25 of mature PTH(1-84) (protein, UniProt P01270 32-115, looked up, variant R25C)
Parathyroid hormone: SVSEIQLMHNLGKHLNSMERVEWLCKKLQDVHNFVALGAPLAPRDAGSQRPRKKEDNVLVESHEKSLGEADKADVNVLTKAKSQ
modifications: Parathyroid hormone
B1: in assay [3], the “PTH level in conditioned medium, PTH(1-84) assay” value worked out at 1812 ± 175 pg/mL and the “PTH level in conditioned medium, ntPTH assay” value was found to be 30.9 ± 23 pg/mL. The “secretion of mutant hormone into the medium” value in assay [3] (transfected COS-7 cells) is on record as “efficiently secreted into the medium”.

B2: PTH(1-84): wild-type hormone expressed from plasmid encoding wild-type preproPTH in COS-7 cells (protein, UniProt P01270 32-115, looked up)
Parathyroid hormone: SVSEIQLMHNLGKHLNSMERVEWLRKKLQDVHNFVALGAPLAPRDAGSQRPRKKEDNVLVESHEKSLGEADKADVNVLTKAKSQ
modifications: Parathyroid hormone
Consider B2, for which, in assay [3], the “PTH level in conditioned medium, PTH(1-84) assay” value was determined as 1812 ± 94 pg/mL and the “PTH level in conditioned medium, ntPTH assay” value amounted to 2285 ± 277 pg/mL.
